The values that follow come from US7648964B2, “Use of lacritin in promoting ocular cell survival” (University of Virginia Patent Foundation, priority 2004, dated 2010).

In one experiment the test system is RelA (p65). Nature of the experiment: Nuclear translocation of NF-kappaB subunit RelA (p65) in HSG cells. The experiment is classed as cell-based, human. The text has this: Nuclear translocation of this transcription factor has also been observed after lacritin treatment. Very little RelA was initially observed in the nuclear compartment in resting HSG cells.

The target in the next experiment is fibronectin (Homo sapiens, UniProt P02751). Description: ECM binding ELISA. As to conditions: 0-30 nM lacritin. Here is the method: (§1) Binding studies were carried out in 96 well plates coated with 10 μg/well of collagen IV, laminin-1, entactin/nidogen-1, collagen I, fibronectin, vitronectin, EGF, heparin or BMS. Wells were washed, blocked (PBS-T), incubated with 0-30 nM lacritin (in PBS-T containing 1% BSA) for 1 hr (4° C.), washed and detected with anti-lacritin antibody (1/1000) by ELISA.
For orientation: An ELISA detects its analyte on a solid surface through an enzyme-linked reagent.

The target of a further experiment is T1, nidogen/entactin (Homo sapiens, UniProt P14543).
T1 sequence (P14543 29-1247): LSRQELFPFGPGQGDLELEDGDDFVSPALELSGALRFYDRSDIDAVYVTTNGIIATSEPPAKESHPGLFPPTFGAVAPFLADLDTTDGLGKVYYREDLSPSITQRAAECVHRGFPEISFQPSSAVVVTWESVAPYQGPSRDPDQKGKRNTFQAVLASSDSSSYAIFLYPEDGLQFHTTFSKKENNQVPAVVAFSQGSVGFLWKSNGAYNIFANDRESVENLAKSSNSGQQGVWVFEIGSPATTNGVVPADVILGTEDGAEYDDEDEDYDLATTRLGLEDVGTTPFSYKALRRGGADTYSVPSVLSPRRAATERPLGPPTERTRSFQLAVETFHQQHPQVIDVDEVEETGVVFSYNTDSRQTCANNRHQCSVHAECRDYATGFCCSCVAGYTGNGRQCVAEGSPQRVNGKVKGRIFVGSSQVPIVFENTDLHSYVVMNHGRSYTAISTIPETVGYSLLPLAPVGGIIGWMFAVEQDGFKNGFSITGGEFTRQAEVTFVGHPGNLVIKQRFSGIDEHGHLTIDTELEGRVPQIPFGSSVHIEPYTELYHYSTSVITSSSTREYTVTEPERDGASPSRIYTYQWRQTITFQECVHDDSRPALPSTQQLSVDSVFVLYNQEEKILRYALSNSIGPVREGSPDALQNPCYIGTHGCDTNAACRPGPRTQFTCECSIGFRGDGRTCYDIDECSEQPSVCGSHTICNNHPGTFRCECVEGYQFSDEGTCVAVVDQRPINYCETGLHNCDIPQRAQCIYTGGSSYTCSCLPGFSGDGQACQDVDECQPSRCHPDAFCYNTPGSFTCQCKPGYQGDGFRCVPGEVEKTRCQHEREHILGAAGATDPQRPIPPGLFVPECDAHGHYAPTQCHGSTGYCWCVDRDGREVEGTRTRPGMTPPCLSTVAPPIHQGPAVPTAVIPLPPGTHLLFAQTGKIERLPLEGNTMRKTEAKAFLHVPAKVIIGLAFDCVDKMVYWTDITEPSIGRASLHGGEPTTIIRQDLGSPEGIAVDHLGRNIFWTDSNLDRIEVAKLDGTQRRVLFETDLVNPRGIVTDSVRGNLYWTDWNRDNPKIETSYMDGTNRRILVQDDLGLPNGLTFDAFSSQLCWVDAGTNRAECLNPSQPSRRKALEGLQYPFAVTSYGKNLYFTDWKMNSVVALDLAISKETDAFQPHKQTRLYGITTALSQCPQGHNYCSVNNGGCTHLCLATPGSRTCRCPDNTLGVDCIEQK
Nature of the experiment: ECM binding ELISA. As to conditions: 0-30 nM lacritin. The protocol:
as §1

A short description of a further experiment: ECM binding ELISA. As to conditions: 0-30 nM lacritin. Here is the method:
as §1

Another experiment relates to laminin-1. Nature of the experiment: ECM binding ELISA. As to conditions: 0-30 nM lacritin. Here is the method: as §1
In another experiment the target is T2, vitronectin (Homo sapiens, UniProt P04004).
T2 sequence (P04004 20-478): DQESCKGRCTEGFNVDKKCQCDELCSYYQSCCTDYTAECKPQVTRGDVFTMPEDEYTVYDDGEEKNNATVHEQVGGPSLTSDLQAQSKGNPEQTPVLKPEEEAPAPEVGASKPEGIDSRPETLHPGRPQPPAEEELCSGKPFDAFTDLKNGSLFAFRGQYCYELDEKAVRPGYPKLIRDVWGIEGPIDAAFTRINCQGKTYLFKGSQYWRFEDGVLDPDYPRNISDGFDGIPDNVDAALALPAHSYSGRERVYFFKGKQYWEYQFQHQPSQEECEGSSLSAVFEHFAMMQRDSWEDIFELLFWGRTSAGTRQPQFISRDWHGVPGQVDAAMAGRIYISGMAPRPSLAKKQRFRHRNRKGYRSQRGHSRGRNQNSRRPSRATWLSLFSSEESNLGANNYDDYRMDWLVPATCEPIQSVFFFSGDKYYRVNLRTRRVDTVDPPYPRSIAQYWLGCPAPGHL
Nature of the experiment: ECM binding ELISA. As to conditions: 0-30 nM lacritin. The protocol: as §1

A further experiment has as its target EGF (Homo sapiens, UniProt P01133). Nature of the experiment: ECM binding ELISA. As to conditions: 0-30 nM lacritin. Here is the method: as §1
A further experiment addresses collagen I (Homo sapiens, UniProt P02452+P08123). Description: ECM binding ELISA. As to conditions: 0-30 nM lacritin. Here is the method:
as §1

A further experiment has as its system collagen IV. Nature of the experiment: ECM binding ELISA. The following applies: 0-30 nM lacritin. The protocol: as §1

Chain of collagen I (P02452 162-1218 limits assumed): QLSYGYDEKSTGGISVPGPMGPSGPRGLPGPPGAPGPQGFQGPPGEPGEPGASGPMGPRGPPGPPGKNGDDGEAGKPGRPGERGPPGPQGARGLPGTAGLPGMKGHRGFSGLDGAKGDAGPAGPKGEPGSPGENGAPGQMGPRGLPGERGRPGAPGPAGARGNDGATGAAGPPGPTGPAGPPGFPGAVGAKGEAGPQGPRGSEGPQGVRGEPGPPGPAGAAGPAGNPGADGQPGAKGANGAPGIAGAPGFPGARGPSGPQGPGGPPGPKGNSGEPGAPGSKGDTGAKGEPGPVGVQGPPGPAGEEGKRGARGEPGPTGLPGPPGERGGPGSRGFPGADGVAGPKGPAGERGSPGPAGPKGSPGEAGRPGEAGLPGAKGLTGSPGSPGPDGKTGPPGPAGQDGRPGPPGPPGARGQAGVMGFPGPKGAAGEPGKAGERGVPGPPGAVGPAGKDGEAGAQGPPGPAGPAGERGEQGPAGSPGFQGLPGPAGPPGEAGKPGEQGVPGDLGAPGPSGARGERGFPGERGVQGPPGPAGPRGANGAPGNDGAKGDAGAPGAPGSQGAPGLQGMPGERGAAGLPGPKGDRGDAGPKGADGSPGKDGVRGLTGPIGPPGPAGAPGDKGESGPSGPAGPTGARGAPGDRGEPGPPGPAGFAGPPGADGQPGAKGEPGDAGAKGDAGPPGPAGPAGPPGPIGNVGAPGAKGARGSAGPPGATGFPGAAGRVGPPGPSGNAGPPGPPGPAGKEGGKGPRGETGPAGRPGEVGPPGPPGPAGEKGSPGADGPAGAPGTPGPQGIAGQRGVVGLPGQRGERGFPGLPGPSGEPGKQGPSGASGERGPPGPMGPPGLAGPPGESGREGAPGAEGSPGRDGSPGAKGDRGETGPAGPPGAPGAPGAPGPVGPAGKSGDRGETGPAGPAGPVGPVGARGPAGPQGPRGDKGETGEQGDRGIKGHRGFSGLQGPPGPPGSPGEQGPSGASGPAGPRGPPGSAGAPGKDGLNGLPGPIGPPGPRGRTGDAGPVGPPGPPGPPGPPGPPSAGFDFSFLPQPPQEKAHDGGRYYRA
Chain of collagen I (P08123 80-1119 limits assumed): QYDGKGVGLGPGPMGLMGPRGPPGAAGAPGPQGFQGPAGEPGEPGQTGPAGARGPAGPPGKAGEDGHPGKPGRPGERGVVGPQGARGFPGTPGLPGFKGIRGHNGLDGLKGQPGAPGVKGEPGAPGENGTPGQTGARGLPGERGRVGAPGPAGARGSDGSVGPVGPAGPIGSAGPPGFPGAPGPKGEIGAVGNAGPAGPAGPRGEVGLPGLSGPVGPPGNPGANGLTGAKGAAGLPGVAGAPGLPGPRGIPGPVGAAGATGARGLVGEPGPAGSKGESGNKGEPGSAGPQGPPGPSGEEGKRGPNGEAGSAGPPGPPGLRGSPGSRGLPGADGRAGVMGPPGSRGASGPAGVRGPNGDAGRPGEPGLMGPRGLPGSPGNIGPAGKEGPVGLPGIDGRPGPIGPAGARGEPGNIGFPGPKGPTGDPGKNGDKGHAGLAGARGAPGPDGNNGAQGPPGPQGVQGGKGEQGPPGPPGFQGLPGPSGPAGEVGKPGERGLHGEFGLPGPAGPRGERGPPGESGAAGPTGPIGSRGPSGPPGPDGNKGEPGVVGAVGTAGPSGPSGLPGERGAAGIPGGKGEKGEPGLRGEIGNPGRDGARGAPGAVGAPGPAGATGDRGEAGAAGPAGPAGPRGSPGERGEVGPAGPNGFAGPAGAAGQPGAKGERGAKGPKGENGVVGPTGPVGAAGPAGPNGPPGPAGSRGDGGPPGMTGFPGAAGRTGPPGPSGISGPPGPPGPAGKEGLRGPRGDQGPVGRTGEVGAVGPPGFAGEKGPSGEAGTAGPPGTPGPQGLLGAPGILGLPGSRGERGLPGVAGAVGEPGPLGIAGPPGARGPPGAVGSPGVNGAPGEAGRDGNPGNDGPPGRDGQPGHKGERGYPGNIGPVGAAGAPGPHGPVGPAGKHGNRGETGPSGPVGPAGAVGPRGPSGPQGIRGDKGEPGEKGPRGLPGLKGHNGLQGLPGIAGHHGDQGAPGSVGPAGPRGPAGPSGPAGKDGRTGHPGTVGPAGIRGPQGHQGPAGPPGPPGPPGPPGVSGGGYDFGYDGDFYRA
Chain of fibronectin (P02751 32-2477, species assumed): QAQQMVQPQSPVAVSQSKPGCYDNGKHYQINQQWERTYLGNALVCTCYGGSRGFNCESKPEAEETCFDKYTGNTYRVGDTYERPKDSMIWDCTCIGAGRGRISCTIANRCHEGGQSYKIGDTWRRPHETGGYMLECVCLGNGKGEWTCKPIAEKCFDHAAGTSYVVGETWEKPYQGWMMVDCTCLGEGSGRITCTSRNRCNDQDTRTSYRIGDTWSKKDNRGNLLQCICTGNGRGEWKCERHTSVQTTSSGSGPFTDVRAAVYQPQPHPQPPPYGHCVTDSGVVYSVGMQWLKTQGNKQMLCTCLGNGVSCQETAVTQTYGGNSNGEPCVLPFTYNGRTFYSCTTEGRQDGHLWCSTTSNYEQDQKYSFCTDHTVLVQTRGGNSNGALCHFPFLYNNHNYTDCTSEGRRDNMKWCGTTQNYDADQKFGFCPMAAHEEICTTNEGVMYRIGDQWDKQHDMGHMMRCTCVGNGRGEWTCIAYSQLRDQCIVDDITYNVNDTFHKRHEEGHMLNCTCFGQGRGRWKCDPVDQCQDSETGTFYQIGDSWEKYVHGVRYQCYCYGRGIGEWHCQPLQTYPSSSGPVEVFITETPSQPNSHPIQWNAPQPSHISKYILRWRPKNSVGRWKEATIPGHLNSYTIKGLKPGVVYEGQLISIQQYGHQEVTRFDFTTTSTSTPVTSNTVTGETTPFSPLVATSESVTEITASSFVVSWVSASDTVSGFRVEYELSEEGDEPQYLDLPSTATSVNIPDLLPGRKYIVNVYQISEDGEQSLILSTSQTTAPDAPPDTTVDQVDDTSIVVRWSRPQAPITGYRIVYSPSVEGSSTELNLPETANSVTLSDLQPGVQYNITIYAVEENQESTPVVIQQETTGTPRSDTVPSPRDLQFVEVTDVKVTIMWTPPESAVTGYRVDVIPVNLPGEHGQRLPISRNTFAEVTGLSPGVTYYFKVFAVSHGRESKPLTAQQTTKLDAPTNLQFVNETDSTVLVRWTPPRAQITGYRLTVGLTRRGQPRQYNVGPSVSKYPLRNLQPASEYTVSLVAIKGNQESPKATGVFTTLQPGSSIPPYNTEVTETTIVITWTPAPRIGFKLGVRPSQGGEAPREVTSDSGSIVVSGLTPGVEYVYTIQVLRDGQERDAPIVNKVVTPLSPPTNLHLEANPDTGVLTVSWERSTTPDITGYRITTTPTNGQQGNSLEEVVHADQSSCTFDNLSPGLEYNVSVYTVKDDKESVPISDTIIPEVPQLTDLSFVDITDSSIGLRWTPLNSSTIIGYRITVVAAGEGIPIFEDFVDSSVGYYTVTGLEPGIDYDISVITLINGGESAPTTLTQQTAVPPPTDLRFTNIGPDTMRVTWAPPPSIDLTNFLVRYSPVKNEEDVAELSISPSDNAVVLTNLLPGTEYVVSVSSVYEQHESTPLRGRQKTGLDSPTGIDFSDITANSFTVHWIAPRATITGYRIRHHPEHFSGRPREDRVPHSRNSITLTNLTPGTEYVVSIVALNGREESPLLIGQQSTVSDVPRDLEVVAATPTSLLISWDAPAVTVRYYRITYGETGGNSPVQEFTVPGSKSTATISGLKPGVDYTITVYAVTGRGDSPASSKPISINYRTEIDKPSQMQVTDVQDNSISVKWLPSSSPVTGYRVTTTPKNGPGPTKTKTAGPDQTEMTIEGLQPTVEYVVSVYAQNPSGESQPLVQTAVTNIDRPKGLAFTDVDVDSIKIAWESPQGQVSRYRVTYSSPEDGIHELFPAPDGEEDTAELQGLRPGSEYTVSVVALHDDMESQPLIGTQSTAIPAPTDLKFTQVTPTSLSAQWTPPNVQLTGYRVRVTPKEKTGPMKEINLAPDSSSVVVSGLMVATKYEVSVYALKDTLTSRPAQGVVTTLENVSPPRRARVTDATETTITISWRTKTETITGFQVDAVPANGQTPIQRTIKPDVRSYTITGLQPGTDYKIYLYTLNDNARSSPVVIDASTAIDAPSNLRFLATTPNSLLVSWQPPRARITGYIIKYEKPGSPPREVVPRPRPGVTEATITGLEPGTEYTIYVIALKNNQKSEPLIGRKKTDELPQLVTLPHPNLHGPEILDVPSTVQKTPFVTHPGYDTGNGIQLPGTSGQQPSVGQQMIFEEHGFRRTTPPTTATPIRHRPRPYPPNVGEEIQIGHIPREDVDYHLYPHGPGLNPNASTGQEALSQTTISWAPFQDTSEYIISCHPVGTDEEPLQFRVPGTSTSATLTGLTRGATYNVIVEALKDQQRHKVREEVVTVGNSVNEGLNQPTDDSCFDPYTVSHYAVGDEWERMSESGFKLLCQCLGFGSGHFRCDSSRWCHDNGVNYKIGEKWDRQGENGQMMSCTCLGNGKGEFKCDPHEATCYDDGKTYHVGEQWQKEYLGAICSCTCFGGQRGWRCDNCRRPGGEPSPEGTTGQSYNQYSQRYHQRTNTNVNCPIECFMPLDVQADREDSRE
Chain of EGF (P01133 971-1023 limits assumed, species assumed): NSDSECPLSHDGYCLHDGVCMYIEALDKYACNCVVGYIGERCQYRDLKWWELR

B1: lacritin: recombinant human lacritin from E. coli; mature 119 residue fragment (SEQ ID NO:10) of native lacritin SEQ ID NO:4 (protein, listed as Homo sapiens)
chain: EDASSDSTGADPAQEAGTSKPNEEISGPAEPASPPETTTTAQETSAAAVQGTAKVTSSRQELNPLKSIVEKSILLTEQALAKAGKGMHGGVPGGKQFIENGSEFAQKLLKKFSLLKPWA
Regarding B1, in the experiment with RelA (p65) (4 hours after initial contact with lacritin), the “nuclear RelA at 4 hours” value is listed as “high level of RelA was still observed”. Further, in the experiment with RelA (p65) (lacritin treatment), the “time of peak nuclear RelA” value is listed as “between 15 minutes to 1 hour” and the “time to detectable RelA in nucleus” value worked out at 1 min. Further, the binding to fibronectin entry with fibronectin is “remarkable avidity”. The binding to nidogen/entactin result in the experiment with nidogen/entactin is listed as “strong basement membrane binding”. The binding to heparin result in “ECM binding ELISA” was “No binding”. Further, the “binding to laminin-1” value in the experiment with laminin-1 is given as “strong basement membrane binding”. Further, the binding to vitronectin result in the experiment with vitronectin was “remarkable avidity”. In the experiment with EGF, the “binding to EGF” value is “No binding”. Besides, the “binding to collagen I” value with collagen I is “No binding”. The “binding to collagen IV” value in the experiment on collagen IV was “strong basement membrane binding”.
